For experiment [1], the target named is recombinant TGF-β1 (rat TGFβ1 sequence expressed in HEK cells, heat-activated) (rat) (UniProt P17246). The experiment in a line: cell-based or functional assay.
Experiment [2] concerns the target TGF-β present in IFN-β-treated mouse 2D2-FIG splenocyte cultures (endogenous) (mouse). As to the kind of experiment: cell-based or functional assay.

UniProt P17246, sequence (P17246 279-390 limits assumed): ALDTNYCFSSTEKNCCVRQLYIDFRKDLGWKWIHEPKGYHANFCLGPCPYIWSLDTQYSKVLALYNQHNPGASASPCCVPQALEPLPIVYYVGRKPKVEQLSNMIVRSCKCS

B1: 1D11.16.8 anti-mouse-TGF-β1/2/3 mouse IgG1 mAb (antibody, from another filing, V domains shown)
VH: QVQLQQSGPELVRPGASVKLSCKASGYIFITYWMNWVKQRPGQGLEWIGQIFPASGSTNYNEMFEGKATLTVDTSSSTAYMQLSSLTSEDSAVYYCARGDGNYALDAMDYWGQGTSVTVSS
VL: DIVLTQSPASLAVSLGQRATISCRASESVDSYGNSFMHWYQQKSGQPPKLLIYLASNLESGVPARFSGSGSRTDFTLTIDPVEADDAATYYCQQNNEDPLTFGAGTKLEIK
For B1, in experiment [1], the inhibition of TGF-β-induced FOXP3+ Treg induction (GFP) in MOG35-55-stimulated 2D2-FIG splenocytes, 7 days turned out to be 1 µg/mL. The same molecule had an inhibition of IFN-β-induced FOXP3+ Treg induction (GFP) in MOG35-55-stimulated 2D2-FIG splenocytes, 7 days in experiment [2] of 1 µg/mL.
